What all share (experiment): fluorescence anisotropy
The target in series [1] is T1, ScPif1p DM (Saccharomyces cerevisiae, UniProt P07271 237-780, E242A;K273A;R281A).
T1 sequence: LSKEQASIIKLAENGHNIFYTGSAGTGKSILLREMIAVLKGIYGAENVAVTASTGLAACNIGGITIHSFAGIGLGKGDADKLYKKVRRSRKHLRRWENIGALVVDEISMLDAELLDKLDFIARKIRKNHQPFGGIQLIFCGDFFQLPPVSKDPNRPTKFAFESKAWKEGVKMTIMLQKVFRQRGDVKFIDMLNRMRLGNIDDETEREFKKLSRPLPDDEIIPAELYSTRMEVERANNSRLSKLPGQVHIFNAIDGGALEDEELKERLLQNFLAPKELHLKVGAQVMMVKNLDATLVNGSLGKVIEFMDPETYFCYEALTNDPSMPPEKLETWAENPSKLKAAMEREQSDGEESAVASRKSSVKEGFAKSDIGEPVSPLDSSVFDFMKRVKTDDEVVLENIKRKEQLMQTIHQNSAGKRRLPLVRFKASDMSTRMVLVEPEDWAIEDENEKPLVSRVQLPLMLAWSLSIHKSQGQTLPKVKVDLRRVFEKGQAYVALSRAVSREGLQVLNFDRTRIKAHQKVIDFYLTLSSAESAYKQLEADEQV

For series [2], the target named is T2, ScPif1p E681G (Saccharomyces cerevisiae, UniProt P07271 237-780, E681G).
T2 sequence: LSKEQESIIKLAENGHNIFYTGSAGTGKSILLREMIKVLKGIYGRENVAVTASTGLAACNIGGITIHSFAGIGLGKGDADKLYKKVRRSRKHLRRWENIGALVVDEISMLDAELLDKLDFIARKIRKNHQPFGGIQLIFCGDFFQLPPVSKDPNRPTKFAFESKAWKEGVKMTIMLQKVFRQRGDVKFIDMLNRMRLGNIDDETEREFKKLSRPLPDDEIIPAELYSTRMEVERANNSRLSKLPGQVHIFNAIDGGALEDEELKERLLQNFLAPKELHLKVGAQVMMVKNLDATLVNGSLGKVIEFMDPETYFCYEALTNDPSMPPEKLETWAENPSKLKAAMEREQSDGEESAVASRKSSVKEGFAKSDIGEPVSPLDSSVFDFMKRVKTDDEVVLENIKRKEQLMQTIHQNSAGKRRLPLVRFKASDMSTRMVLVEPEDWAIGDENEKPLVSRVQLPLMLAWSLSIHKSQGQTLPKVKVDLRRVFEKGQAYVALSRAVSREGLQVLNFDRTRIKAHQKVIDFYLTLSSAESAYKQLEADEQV

Series [3] addresses T3, ScPif1p K363A (Saccharomyces cerevisiae, UniProt P07271 237-780, K363A).
T3 sequence: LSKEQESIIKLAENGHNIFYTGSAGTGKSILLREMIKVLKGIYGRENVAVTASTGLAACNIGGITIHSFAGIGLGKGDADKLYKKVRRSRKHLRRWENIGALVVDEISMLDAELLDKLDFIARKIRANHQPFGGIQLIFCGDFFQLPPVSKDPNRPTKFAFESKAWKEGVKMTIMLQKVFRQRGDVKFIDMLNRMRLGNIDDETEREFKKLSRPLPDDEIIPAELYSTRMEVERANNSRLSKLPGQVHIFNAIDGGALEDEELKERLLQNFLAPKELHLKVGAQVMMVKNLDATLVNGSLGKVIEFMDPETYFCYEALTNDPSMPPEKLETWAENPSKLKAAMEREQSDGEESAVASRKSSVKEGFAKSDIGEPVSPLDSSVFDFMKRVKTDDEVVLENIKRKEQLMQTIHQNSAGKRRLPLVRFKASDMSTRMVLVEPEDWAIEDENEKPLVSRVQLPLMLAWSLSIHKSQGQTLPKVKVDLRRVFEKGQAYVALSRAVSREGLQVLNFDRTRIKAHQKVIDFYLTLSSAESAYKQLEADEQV

For series [4], the target named is T4, ScPif1p R323A (Saccharomyces cerevisiae, UniProt P07271 237-780, R323A).
T4 sequence: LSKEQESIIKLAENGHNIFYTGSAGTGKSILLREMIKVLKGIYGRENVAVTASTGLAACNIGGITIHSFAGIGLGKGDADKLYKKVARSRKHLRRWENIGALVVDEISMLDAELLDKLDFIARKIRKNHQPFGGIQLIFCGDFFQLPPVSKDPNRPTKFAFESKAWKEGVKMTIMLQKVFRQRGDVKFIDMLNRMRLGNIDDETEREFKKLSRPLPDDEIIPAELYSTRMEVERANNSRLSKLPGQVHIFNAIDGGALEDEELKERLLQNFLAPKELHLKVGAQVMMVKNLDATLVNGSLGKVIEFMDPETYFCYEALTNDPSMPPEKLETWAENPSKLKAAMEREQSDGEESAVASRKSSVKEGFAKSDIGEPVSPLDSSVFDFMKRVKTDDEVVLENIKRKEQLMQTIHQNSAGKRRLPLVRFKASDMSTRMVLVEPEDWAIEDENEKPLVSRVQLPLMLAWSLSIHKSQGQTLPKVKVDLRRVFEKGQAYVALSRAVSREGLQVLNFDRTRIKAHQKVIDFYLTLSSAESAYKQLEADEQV

A word on the Kd: it is a measure of binding affinity in units of concentration. Low values mean tighter binding, high ones weaker binding. On to GTGTGTGTGGTG (ssDNA) [GR12], for which the equilibrium dissociation constant (Kd) in series [1] turned out to be 13.4 ± 0.8 nM; in series [2], 12.4 ± 3.9 nM; in series [3], 14.4 ± 1.3 nM; in series [4], 9.9 ± 0.4 nM.

B1: dsDNA16bp (dsDNA)
DNA 1: CTCTGCTCGACGGATT
DNA 2: AATCCGTCGAGCAGAG
On to B1, for which the Kd in series [1] turned out to be 95.5 ± 8.5 nM; in series [2], 56.1 ± 11.6 nM; in series [3] it was 72.3 ± 8.3 nM; in series [4], 100 ± 5.1 nM.
Consider AGGGTGGGTGGGTGGGT (structured_DNA) [F-G417], for which the Kd worked out at 23.8 ± 2.5 nM in series [1], 76.5 ± 10.5 nM in series [2], 43.9 ± 2.2 nM in series [3] and 25.1 ± 1.4 nM in series [4].

Source of the values: paper PMC5814829.
